We go through 6 substances from PMC5111828.

pKd, pKi: −log10 of the molar value.

The target in one assay is Hsp90 (Homo sapiens) (UniProt P07900). The experiment in a line: size exclusion chromatography. To be noted: cited from earlier work.
The next assay has as its target Hsp70 Alexa Fluor 488 (UniProt P0DMV8). The assay can be described thus: cross-linking.
Assay [1] deals with Bag3 (Homo sapiens) (UniProt O95817). The experiment in a line: APCE. To be noted: cited from earlier work.
For assay [2] the target is unchanged. The assay can be described thus: ITC. Particulars: cited from earlier work.
Assay [3] deals with Bcl-2 associated athanogene 3 (Bag3) (UniProt O95817). The assay can be described thus: cross-linking.
Assay [4] has the same target. The assay can be described thus: flow cytometry protein interaction assay. On the technique in general: A flow cytometer gives signals particle by particle.

Chain of Hsp70 (P0DMV8 2-641): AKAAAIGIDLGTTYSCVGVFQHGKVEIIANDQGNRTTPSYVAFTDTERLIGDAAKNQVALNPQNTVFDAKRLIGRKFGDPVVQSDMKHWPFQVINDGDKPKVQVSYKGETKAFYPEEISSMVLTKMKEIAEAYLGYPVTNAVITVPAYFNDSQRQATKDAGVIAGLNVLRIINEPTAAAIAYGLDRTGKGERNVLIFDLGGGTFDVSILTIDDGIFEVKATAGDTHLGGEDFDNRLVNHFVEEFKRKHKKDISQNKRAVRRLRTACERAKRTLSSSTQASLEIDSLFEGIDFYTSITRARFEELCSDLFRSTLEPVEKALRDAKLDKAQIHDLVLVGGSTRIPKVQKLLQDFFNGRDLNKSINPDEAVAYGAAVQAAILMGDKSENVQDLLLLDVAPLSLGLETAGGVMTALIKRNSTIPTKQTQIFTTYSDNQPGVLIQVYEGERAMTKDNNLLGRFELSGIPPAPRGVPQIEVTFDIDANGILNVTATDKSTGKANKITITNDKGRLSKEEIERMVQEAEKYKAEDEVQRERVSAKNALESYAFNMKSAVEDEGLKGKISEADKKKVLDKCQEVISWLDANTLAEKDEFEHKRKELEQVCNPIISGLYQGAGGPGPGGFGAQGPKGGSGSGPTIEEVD

With Hsp90 (from UniProt P07900), the pKd (commonly the negative decadic logarithm of the Kd, by convention in mol/L) in the assay with Hsp90 (Homo sapiens) was 7.22.

“Bcl-2 associated athanogene 3 (Bag3) (from UniProt O95817 1-575) (natural protein)” had a pKd with Hsp70 Alexa Fluor 488 of 7.60.

For Hsp70 (from UniProt P0DMV8), the pKd in the assay with Bag3 (Homo sapiens) [1] is 7.64; with Bag3 (Homo sapiens) [2], 7.82.

As for “Hsp70 E,D 283, 292 A,A (from UniProt P0DMV8 1-641) (natural protein)”, the pKi (as a rule, the Ki on a negative log10 scale, so that one unit is a factor of ten) in assay [3] was 6.80.

With “Hsp70 R,R 258,262 A,A (from UniProt P0DMV8 1-641) (natural protein)”, the pKi in assay [3] was 6.40.

Consider “unlabeled Hsp70 (Wild-Type) (from UniProt P0DMV8 1-641) (natural protein)”, for which the pKi in assay [4] is 7.82.
